Tests used:
native human ApoC3 [1] = target: T1, native human ApoC3 (human, UniProt P02656 21-99); test: SPR, ApoC3 over captured IgG1
T1 construct: also called nhuApoC3; native huApoC3
Procedure: (§1) An inverted SPR assay was designed in which a test antibody was captured on an SPR chip, human ApoC3 protein was injected, and binding of ApoC3 to the antibody was measured. […] The immobilization was performed in accordance with the method provided by Biacore/GE using the NHS/EDC kit (Biacore AB, Cat.nr. BR-1000-50): after activation of the chip, a solution of 30 μg/ml of anti-human Fcγ antibody in 10 mM acetate buffer with pH of 5.0 was prepared and injected until the surface density reached approximately 10000 RU. The analytical cycle comprised the following steps:
(§2) The resulting sensorgrams were analyzed using the BIAevaluation 4.1 software using Langmuir 1:1 binding model to derive binding kinetics. Data was zero adjusted, the reference cell sensorgrams were subtracted and the no analyte blank assay was used for double referencing the sensorgrams corresponding to the analyte injections. The dissociation and association phase sensorgrams were fitted separately for the 4 different concentration curves. Sensorgrams were excluded from the fitting if maximum RU values reached were below the detection limit of the equipment (<5 RU), Biacore 3000 (Biacore AB).

native human ApoC3 [2] = target: T1, native human ApoC3; test: SPR, ApoC3 over captured IgG1, pH 5.5
Procedure: as §1, §2

[3] = target: T2, biotinylated native human ApoC3 (human, UniProt P02656 21-99, biotinylated (site not stated)); test: SPR, IgG1 over biotinylated ApoC3 on SA chip, pH 5.5
T2 construct: also called biotinylated human ApoC3
T2 sequence (P02656 21-99): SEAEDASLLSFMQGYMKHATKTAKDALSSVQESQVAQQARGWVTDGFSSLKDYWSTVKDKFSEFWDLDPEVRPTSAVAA
Procedure: (§3) Biotinylated native human ApoC3 was captured on a streptavidin coated SPR chip (GE Healthcare, cat. nr. BR100032) at pH 7.4, in accordance with the method provided by Biacore, by injection of 20 μl 10 μg/ml biotinylated native human ApoC3 reaching the surface density of approximately 500 RU. 60 μL of test antibody in 1-50 nM range diluted in HBS-EP buffer (GE, cat # BR-1008-26; 0.010 M HEPES, 0.150M NaCl, 3 mM EDTA, 0.05% (v/v) surfactant P20, pH 7.4) was injected and passed through the flow cells at a flow rate of 30 μl/min, followed by an off-rate wash at pH7.4 for 5 min. After the dissociation, the flow cell surfaces were regenerated by injecting 10 μl of 10 mM NaOH/1 M NaCl and 10 μl of 10 mM glycine at pH1.5. The assay was repeated at pH5.5 using the same general protocol, where the running and sample dilution buffer was replaced by a HBS-EP buffer supplemented with citrate buffer to 10 mM final concentration and pH adjusted to 5.5.
(§4) The resulting sensorgrams were analyzed using the BIAevaluation 4.1 software using Langmuir 1:1 binding model to derive binding kinetics. Data was zero adjusted and the reference cell sensorgrams were subtracted. Sensorgrams were double referenced to no-analyte blank assay. Fitted parameters were considered not applicable if off-rate values were below the equipment's detection limit of kd: 1×10⁻⁶ 1/s.

[4] = target: T2, biotinylated native human ApoC3; test: SPR, IgG1 over biotinylated ApoC3 on SA chip, pH 7.4
Procedure: as §3, §4

[5] = target: T2, biotinylated native human ApoC3; test: SPR, IgG1 over biotinylated ApoC3 on SA chip
Procedure: as §3, §4

native human ApoC3 [6] = target: T1, native human ApoC3; test: SPR, ApoC3 over captured IgG1, pH 7.4
Procedure: as §1, §2

T1 sequence (P02656 21-99): as above

Binder | KD (nM) pH5.5/pH7.4 (native human ApoC3 [1]) | Ka (native human ApoC3 [2]) | koff (native human ApoC3 [2]) | kon (native human ApoC3 [2]) | Ka [3] | Kd [3] | koff [3] | kon [3] | Ka [4] | Kd [4] | koff [4] | kon [4] | KD pH5.5/KD pH7.4 [5] | Ka (native human ApoC3 [6]) | koff (native human ApoC3 [6]) | kon (native human ApoC3 [6])
mAb6 (antibody, IgG1, V domains shown, Produced as full length IgG1 (kappa) in ExpiCHO-S cells; also called humanized anti-ApoC3 antibody mAb6) VH: QLVESGGGLVQPGGSLRLSCAASGFTFGTYSMRWVRQAPGKGLEWVSSIHTEGGGTAYRDSVKGRFTISRDNAKNTLYLQMNSLRAEDTAVYYCVIAGYSDWGQGTLVTVSS VL: DIVMTQSPLSLPVTPGESASISCKTSQGLVHSDGKTYFYWFLQKPGQSPQQLIYQVSNRASGVPDRFSGSGSGTDFTLKISRVKAEDAGVYYCAHGTYYPHTFGQGTRLEIK | 5.22 | 1.16e+06 M⁻¹ | 0.0802 s⁻¹ | 93100 M⁻¹ s⁻¹ | 2.88e+09 M⁻¹ | 0.35 nM | 0.000148 s⁻¹ | 425000 M⁻¹ s⁻¹ | 1.67e+10 M⁻¹ | 0.06 nM | 1.33e-05 s⁻¹ | 222000 M⁻¹ s⁻¹ | 5.79 | 6.08e+06 M⁻¹ | 0.00672 s⁻¹ | 40900 M⁻¹ s⁻¹
mAb8 (antibody, IgG1, V domains shown, Produced as full length IgG1 (kappa) in ExpiCHO-S cells; also called humanized anti-ApoC3 antibody mAb8) VH: QLVESGGGLVQPGGSLRLSCAASGFTFSTYSMRWVRQAPGKGLEWVSSIHTDAGGTAYRDSVKGRFTISRDNAKNTLYLQMNNLRAEDTAVYYCVIAGYSDWGQGTLVTVSS VL: DIVMTQSPLSLSVVPGEPASISCKTSQGLVHSDGKTYFYWFLQKPGQSPQQLIYQVSNRASGVPDRFSGSGSGTDFTLKISRVEAEDVGVYYCAHGTYYPHTFGQGTRLEIK | 1 | 4.13e+06 M⁻¹ | 0.0205 s⁻¹ | 84600 M⁻¹ s⁻¹ | 1.34e+09 M⁻¹ | 0.75 nM | 0.000367 s⁻¹ | 490000 M⁻¹ s⁻¹ | 9.83e+09 M⁻¹ | 0.1 nM | 2.41e-05 s⁻¹ | 237000 M⁻¹ s⁻¹ | 7.34 | 4.15e+06 M⁻¹ | 0.00772 s⁻¹ | 32100 M⁻¹ s⁻¹
mAb7 (antibody, V domains shown, Produced as full length IgG1 (kappa) in ExpiCHO-S cells; also called humanized anti-ApoC3 antibody mAb7) VH: QLVESGGGLVQPGGSLRLSCAASGFTFSTYSMRWVRQAPGKGLEWVSSIHTGGGGTAYRDSVKGRFTISRDNAKNTLYLQMNNLRAEDTAIYYCVIAGYSDWGQGTLVTVSS VL: DIVMTQSPLSLPVTPGESASISCKTSQGLVHSDGKTYFYWFLQKPGQSPQQLIYQVSNRASGVPDRFSGSGSGTDFTLKISRVKAEDAGVYYCAHGTYYPHTFGQGTRLEIK | 2.36 | 1.71e+06 M⁻¹ | 0.0646 s⁻¹ | 111000 M⁻¹ s⁻¹ | 2.05e+08 M⁻¹ |  | 0.00321 s⁻¹ | 656000 M⁻¹ s⁻¹ | 1.08e+10 M⁻¹ | 0.09 nM | 3.37e-05 s⁻¹ | 364000 M⁻¹ s⁻¹ | 52.7 | 4.05e+06 M⁻¹ | 0.012 s⁻¹ | 48500 M⁻¹ s⁻¹

Now from value to binder:

KD (nM) pH5.5/pH7.4 (native human ApoC3 [1]) | Ka (native human ApoC3 [2]) | koff (native human ApoC3 [2]) | kon (native human ApoC3 [2]) | Ka [3] | Kd [3] | koff [3] | kon [3] | Ka [4] | Kd [4] | koff [4] | kon [4] | KD pH5.5/KD pH7.4 [5] | Ka (native human ApoC3 [6]) | koff (native human ApoC3 [6]) | kon (native human ApoC3 [6]) | Binder
3.9 | 1.99e+06 M⁻¹ | 0.0405 s⁻¹ | 80500 M⁻¹ s⁻¹ | 3.02e+09 M⁻¹ | 0.33 nM | 0.000147 s⁻¹ | 445000 M⁻¹ s⁻¹ | 5.77e+09 M⁻¹ | 0.17 nM | 3.8e-05 s⁻¹ | 219000 M⁻¹ s⁻¹ | 1.91 | 7.73e+06 M⁻¹ | 0.00523 s⁻¹ | 40400 M⁻¹ s⁻¹ | mAb11 (antibody, IgG1, V domains shown, Produced as full length IgG1 (kappa) in ExpiCHO-S cells; also called humanized anti-ApoC3 antibody mAb11) VH: QLVESGGGLVQPGGSLRLSCAASGFTFSTYSMRWVRQVPGKGLEWVSSIHTEGGGTAYRDSVKGRFTISRDNAKNTLYLQMNNLRAEDTAVYYCVIAGYSDWGQGTLVTVSS VL: DIVMTQSPLSLSVTPGEPASISCKTSQGLVHSDGKTYFYWFLQKPGQSPQQLIYQVSNRASGVPDRFSGSGSGTDFTLKISRVEAEDVGVYYCAHGTYYPHTFGQGTRLEIK
1.07 | 2.91e+06 M⁻¹ | 0.0251 s⁻¹ | 73200 M⁻¹ s⁻¹ | 7.18e+09 M⁻¹ | 0.14 nM | 6.73e-05 s⁻¹ | 483000 M⁻¹ s⁻¹ | 1.53e+10 M⁻¹ | 0.07 nM | 1.49e-05 s⁻¹ | 228000 M⁻¹ s⁻¹ | 2.12 | 3.12e+06 M⁻¹ | 0.00655 s⁻¹ | 20400 M⁻¹ s⁻¹ | mAb12 (antibody, IgG1, V domains shown, Produced as full length IgG1 (kappa) in ExpiCHO-S cells; also called humanized anti-ApoC3 antibody mAb12) VH: QLVESGGGLVQPGGSLRLSCAASGFTFSTYSMRWVRQVPGKGLEWVSSIHTDAGGTAYRDSVKGRFTISRDNAKNTLYLQMNSLRPEDTAIYYCVIAGYSDWGQGTLVTVSS VL: DIVMTQSPLSLSVTPGEPASISCKTSQGLVHSDGKTYFYWFLQKPGQSPQQLIYQVSNRASGVPDRFTGSGSGTDFTLKISRVKAEDVGVYYCAHGTYYPHTFGQGTRLEIK
1.77 | 2.99e+06 M⁻¹ | 0.0274 s⁻¹ | 82100 M⁻¹ s⁻¹ | 3.7e+09 M⁻¹ |  | 0.000113 s⁻¹ | 417000 M⁻¹ s⁻¹ | 1.05e+10 M⁻¹ | 0.1 nM | 2.12e-05 s⁻¹ | 221000 M⁻¹ s⁻¹ | 2.82 | 5.3e+06 M⁻¹ | 0.00601 s⁻¹ | 31900 M⁻¹ s⁻¹ | mAb10 (antibody, IgG1, V domains shown, Produced as full length IgG1 (kappa) in ExpiCHO-S cells; also called humanized anti-ApoC3 antibody mAb10) VH: QLVESGGGLVQPGGSLRLSCAASGFTFSTYSMRWVRQVPGKGLEWVSSIHTEGGGTAYRDSVKGRFTISRDNAKNTLYLQMNNLRAEDTAVYYCVIAGYSDWGQGTLVTVSS VL: DIVMTQSPLSLSVVPGEPASISCKTSQGLVHSDGKTYFYWFLQKPGQSPQQLIYQVSNRASGVPDRFSGSGSGTDFTLKISRVEAEDVGVYYCAHGTYYPHTFGQGTRLEIK
2.33 | 1.85e+06 M⁻¹ | 0.0467 s⁻¹ | 86300 M⁻¹ s⁻¹ | 1.32e+09 M⁻¹ | 0.76 nM | 0.000369 s⁻¹ | 486000 M⁻¹ s⁻¹ | 6.71e+09 M⁻¹ | 0.15 nM | 3.32e-05 s⁻¹ | 223000 M⁻¹ s⁻¹ | 5.09 | 4.31e+06 M⁻¹ | 0.00669 s⁻¹ | 28800 M⁻¹ s⁻¹ | mAb9 (antibody, IgG1, V domains shown, Produced as full length IgG1 (kappa) in ExpiCHO-S cells; also called humanized anti-ApoC3 antibody mAb9) VH: QLVESGGGLVQPGGSLRLSCAASGFTFSTYSMRWVRQAPGKGLEWVSSIHTDAGGTAYRDSVKGRFTISRDNAKNTLYLQMNNLRAEDTAVYYCVIAGYSDWGQGTLVTVSS VL: DIVMTQSPLSLSVTPGEPASISCKTSQGLVHSDGKTYFYWFLQKPGQSPQQLIYQVSNRASGVPDRFSGSGSGTDFTLKISRVEAEDVGVYYCAHGTYYPHTFGQGTRLEIK
